Measurements published in the supplement of paper PMC7877785.
± gives the uncertainty stated by the source.

Assay: self-splicing fitness, log relative to wild type (ln ratio); higher = more splicing; Tetrahymena group I intron in knt gene, E. coli kanamycin selection, DiMSum; sequences stand for … in CUCUCU…GGAGGGAAAAGUUAUCAGGCAUGCACCUGGUAGCUAGUCUUUAAACCAAUAGAUUGCAUCGGUUUAAAAGGCAAGACCGUCAAAUUGCGGGAAAGGGGUCAACAGCCGUUCAGUACCAAGUCUCAGGGGAAACUUUGAGAUGGCCUUGCAAAGGGUAUGGUAAUAAGCUGACGGACAUGGUCCUAACCACGCAGCCAAGUCCUAAGUCAACAGAUCUUCUGUUGAUAUGGAUGCAGUUCACAGACUAAAUGUCGGUCGGGGAAGAUGUAUUCUUCUCAUAAGAUAUAGUCGGACCUCUCCUUAAUGGGAGCUAGCGGAUGAAGUGAUGCAACACUGGAGCCGCUGGGAACUAAUUUGUAUGCGAAAGUAUAUUGAUUAGUUUUGGAGUACUCGUGGUCG
How it was run: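 The eight P1ex-region nucleotides of an intron in the knt kanamycin-resistance gene on pET-22b(+) were all randomised and the library put into E. coli BL21(DE3). Six replicate transformations were grown overnight at 37°C or 30°C on LB agar with or without 25 μg/mL kanamycin, together with 100 μg/mL carbenicillin, 50 μM IPTG and 0.2% rhamnose. Colonies were pooled and amplicon-sequenced on an Illumina HiSeq 2500. Fitness from DiMSum is the error-weighted combination of wild-type-normalised replicate fold changes, kanamycin over none.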

Sequence	self-splicing fitness (ln) (30 °C)	self-splicing fitness (ln) (37 °C)
GUCAAGCAAUAUUACGUGAU	-4.06 ± 0.23	-3.23 ± 0.27
CGGUAGCAAUAUUACGAUUC	-2.84 ± 0.17	-1.69 ± 0.13
GAGCAGCAAUAUUACGUAUC	-2.06 ± 0.087	-1.44 ± 0.091
CGCUAGCAAUAUUACGUUGG	-4 ± 0.23	-2.24 ± 0.19
AUGAAGCAAUAUUACGUACU	0.105 ± 0.096	0.581 ± 0.11
ACAAAGCAAUAUUACGCCCU	-0.361 ± 0.098	0.683 ± 0.14
UUAGAGCAAUAUUACGACGG	0.111 ± 0.12	-7.81e-05 ± 0.19
AUAAAGCAAUAUUACGCGAU	-2.45 ± 0.15	-1.36 ± 0.16
GCUAAGCAAUAUUACGUUGG	-3.67 ± 0.15	-1.79 ± 0.12
GUCUAGCAAUAUUACGCUCG	-0.688 ± 0.23	-0.634 ± 0.27
GACAAGCAAUAUUACGCGAU	-2.96 ± 0.13	-1.02 ± 0.099
CUAGAGCAAUAUUACGCCGC	-2.52 ± 0.37	–
CGCGAGCAAUAUUACGCGAC	-2.96 ± 0.34	-0.404 ± 0.39
ACGAAGCAAUAUUACGGUUU	-3.17 ± 0.13	-1.89 ± 0.12
CUAGAGCAAUAUUACGAUCG	0.45 ± 0.066	0.245 ± 0.088
CCCGAGCAAUAUUACGAAUG	-2.61 ± 0.18	-1.41 ± 0.22

Sequence	self-splicing fitness (ln) (30 °C)	self-splicing fitness (ln) (37 °C)
ACAGAGCAAUAUUACGGCGC	-1.6 ± 0.14	-0.0642 ± 0.18
GUGCAGCAAUAUUACGGUUC	-0.353 ± 0.075	-0.684 ± 0.11
UUCCAGCAAUAUUACGCCCU	–	-2.93 ± 0.49
UGAAAGCAAUAUUACGGCGG	-1.03 ± 0.085	-0.221 ± 0.14
CUGGAGCAAUAUUACGGAAA	-2.47 ± 0.33	-2.78 ± 0.35
GGAGAGCAAUAUUACGAUUU	-1.65 ± 0.24	0.185 ± 0.43
GGGCAGCAAUAUUACGGGCA	-2.14 ± 0.13	-0.0115 ± 0.09
AAGUAGCAAUAUUACGCUCG	-0.592 ± 0.13	-0.234 ± 0.17
ACGAAGCAAUAUUACGAUAC	-3.68 ± 0.2	-2.2 ± 0.22
AUAAAGCAAUAUUACGUAAG	-2.08 ± 0.1	-0.84 ± 0.11
UUCGAGCAAUAUUACGCUGA	-2.66 ± 0.45	-1.89 ± 0.44
ACCUAGCAAUAUUACGAGAA	-2.97 ± 0.35	-2.29 ± 0.31
GGUAAGCAAUAUUACGUCGC	-1.17 ± 0.13	-0.683 ± 0.13
CUGGAGCAAUAUUACGGCCA	–	-1.99 ± 0.24
CUACAGCAAUAUUACGGGAA	-2.88 ± 0.24	-2.28 ± 0.23
